The values below are quoted from earlier work in PMC10404613.

Usually pKd stands for the Kd on a negative log10 scale, so that one unit is a factor of ten.

pKd: −log10 of the molar value.

This data set deals with UBC9 (Homo sapiens) (UniProt P63279).
Sequence of UniProt P63279 (P63279 2-158): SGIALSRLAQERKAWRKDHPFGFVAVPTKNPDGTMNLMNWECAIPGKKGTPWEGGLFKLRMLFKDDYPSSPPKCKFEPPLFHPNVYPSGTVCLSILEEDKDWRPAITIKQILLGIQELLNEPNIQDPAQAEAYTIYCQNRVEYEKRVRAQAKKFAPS

With SUMO1 (from UniProt P63165), the negative-log Kd (pKd) was 7.00.
